Experimental data published in publication PMC5027287, “Real-time observation of DNA recognition and rejection by the RNA-guided endonuclease Cas9”.

What was measured:
Cas9 (SpCas9) [1] = biological target: T1, Cas9 (SpCas9) (Streptococcus pyogenes, UniProt Q99ZW2 1-1368); assay: smFRET; 20 nM Cas9-RNA; koff <0.006 s-1, lifetime >3 min (photobleaching limit); Immobilized biotin/Cy3 DNA, 20 nM Cas9-RNA (Cy5 crRNA), 0.1 s frames; imaging buffer, pH and temperature not in the material; kon ~6e6 M-1 s-1; conditions: protein: recombinant, tags: His10-MBP removed by TEV, label: Cy3 (DNA), biotin (DNA), DNA duplex 1:2, 5' overhang 2 nt on strand 1, crRNA 3 : tracrRNA 4, guide pairs strand 2
T1 sequence (Q99ZW2 whole entry): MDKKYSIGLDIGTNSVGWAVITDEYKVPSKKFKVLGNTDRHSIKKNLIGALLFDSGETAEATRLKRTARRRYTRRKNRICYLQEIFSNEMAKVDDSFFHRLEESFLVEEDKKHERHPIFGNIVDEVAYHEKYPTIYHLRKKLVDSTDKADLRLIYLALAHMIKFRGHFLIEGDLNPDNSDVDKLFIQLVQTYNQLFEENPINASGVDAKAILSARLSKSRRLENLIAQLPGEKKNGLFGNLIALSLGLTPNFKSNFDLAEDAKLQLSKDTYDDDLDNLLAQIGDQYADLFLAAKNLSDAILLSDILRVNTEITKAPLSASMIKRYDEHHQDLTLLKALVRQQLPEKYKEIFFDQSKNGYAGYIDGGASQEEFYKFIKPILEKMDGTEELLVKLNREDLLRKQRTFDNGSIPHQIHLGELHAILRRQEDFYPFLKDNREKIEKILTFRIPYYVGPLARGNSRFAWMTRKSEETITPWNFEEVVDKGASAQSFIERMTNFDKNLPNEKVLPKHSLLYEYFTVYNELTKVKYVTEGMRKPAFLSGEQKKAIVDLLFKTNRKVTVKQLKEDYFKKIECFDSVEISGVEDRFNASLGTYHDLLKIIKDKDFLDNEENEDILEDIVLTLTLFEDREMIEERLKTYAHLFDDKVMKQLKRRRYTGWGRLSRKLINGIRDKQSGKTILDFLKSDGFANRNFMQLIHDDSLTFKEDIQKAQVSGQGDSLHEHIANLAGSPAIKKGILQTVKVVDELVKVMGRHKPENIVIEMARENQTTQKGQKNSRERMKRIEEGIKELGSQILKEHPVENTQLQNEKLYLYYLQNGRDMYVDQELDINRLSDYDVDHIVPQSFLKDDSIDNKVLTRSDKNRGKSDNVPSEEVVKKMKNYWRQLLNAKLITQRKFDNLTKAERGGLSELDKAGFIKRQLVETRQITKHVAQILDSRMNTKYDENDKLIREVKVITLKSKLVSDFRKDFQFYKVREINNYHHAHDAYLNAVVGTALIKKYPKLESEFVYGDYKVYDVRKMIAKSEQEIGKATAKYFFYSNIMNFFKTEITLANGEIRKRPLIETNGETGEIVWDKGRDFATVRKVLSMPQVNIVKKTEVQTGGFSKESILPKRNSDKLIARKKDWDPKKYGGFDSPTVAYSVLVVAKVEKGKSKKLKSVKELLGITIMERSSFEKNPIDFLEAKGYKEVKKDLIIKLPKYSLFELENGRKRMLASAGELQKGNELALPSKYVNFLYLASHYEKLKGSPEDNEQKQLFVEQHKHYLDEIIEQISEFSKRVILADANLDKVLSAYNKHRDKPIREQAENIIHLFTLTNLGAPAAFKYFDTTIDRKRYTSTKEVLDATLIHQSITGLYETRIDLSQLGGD

Cas9 (SpCas9) [2] = biological target: T1, Cas9 (SpCas9); assay: smFRET; 20 nM; bound fraction as cognate; Immobilized biotin/Cy3 DNA, 20 nM Cas9-RNA (Cy5 crRNA), 0.1 s frames; imaging buffer, pH and temperature not in the material; kon ~6e6 M-1 s-1; conditions: protein: recombinant, tags: His10-MBP removed by TEV, label: Cy3, biotin, as N1
Cas9 (SpCas9) [3] = biological target: T1, Cas9 (SpCas9); assay: smFRET; 20 nM; bound fraction as cognate; bound lifetime ~16 s; Immobilized biotin/Cy3 DNA, 20 nM Cas9-RNA (Cy5 crRNA), 0.1 s frames; imaging buffer, pH and temperature not in the material; kon ~6e6 M-1 s-1; conditions: protein: recombinant, tags: His10-MBP removed by TEV, label: Cy3, biotin, as N1

Binder	binding result (Cas9 (SpCas9) [2])	further results
Cognate DNA + guide RNA (mixed) DNA 1: AACGCAACGTCGTCAGCTGTCTGCACAGCAGAAATCTCTGCTGACGCATAAAGATGAGACGCTGGAGTACAAACGTCAGCTTGCT DNA 2: AGCAAGCTGACGTTTGTACTCCAGCGTCTCATCTTTATGCGTCAGCAGAGATTTCTGCTGTGCAGACAGCTGACGACGTTGCG RNA 1: GACGCAUAAAGAUGAGACGCGUUUUAGAGCUAUGCUGUUUUG RNA 2: GGACAGCAUAGCAAGUUAAAAUAAGGCUAGUCCGUUAUCAACUUGAAAAAGUGGCACCGAGUCGGUGCUUUUU	–	binding result (Cas9 (SpCas9) [1]): binds
11-20mm (mixed) DNA 1: AACGCAACGTCGTCAGCTGTCTGCACAGCAGAAATCTCTGCTCTGCGTATTTGATGAGACGCTGGAGTACAAACGTCAGCTTGCT DNA 2: AGCAAGCTGACGTTTGTACTCCAGCGTCTCATCAAATACGCAGAGCAGAGATTTCTGCTGTGCAGACAGCTGACGACGTTGCG RNA 1: GACGCAUAAAGAUGAGACGCGUUUUAGAGCUAUGCUGUUUUG RNA 2: GGACAGCAUAGCAAGUUAAAAUAAGGCUAGUCCGUUAUCAACUUGAAAAAGUGGCACCGAGUCGGUGCUUUUU	binds	–
12-20mm (mixed) DNA 1: AACGCAACGTCGTCAGCTGTCTGCACAGCAGAAATCTCTGCTCTGCGTATTAGATGAGACGCTGGAGTACAAACGTCAGCTTGCT DNA 2: AGCAAGCTGACGTTTGTACTCCAGCGTCTCATCTAATACGCAGAGCAGAGATTTCTGCTGTGCAGACAGCTGACGACGTTGCG RNA 1: GACGCAUAAAGAUGAGACGCGUUUUAGAGCUAUGCUGUUUUG RNA 2: GGACAGCAUAGCAAGUUAAAAUAAGGCUAGUCCGUUAUCAACUUGAAAAAGUGGCACCGAGUCGGUGCUUUUU	binds	–
13-20mm (mixed) DNA 1: AACGCAACGTCGTCAGCTGTCTGCACAGCAGAAATCTCTGCTCTGCGTATAAGATGAGACGCTGGAGTACAAACGTCAGCTTGCT DNA 2: AGCAAGCTGACGTTTGTACTCCAGCGTCTCATCTTATACGCAGAGCAGAGATTTCTGCTGTGCAGACAGCTGACGACGTTGCG RNA 1: GACGCAUAAAGAUGAGACGCGUUUUAGAGCUAUGCUGUUUUG RNA 2: GGACAGCAUAGCAAGUUAAAAUAAGGCUAGUCCGUUAUCAACUUGAAAAAGUGGCACCGAGUCGGUGCUUUUU	binds	–
10-20mm (mixed) DNA 1: AACGCAACGTCGTCAGCTGTCTGCACAGCAGAAATCTCTGCTCTGCGTATTTCATGAGACGCTGGAGTACAAACGTCAGCTTGCT DNA 2: AGCAAGCTGACGTTTGTACTCCAGCGTCTCATGAAATACGCAGAGCAGAGATTTCTGCTGTGCAGACAGCTGACGACGTTGCG RNA 1: GACGCAUAAAGAUGAGACGCGUUUUAGAGCUAUGCUGUUUUG RNA 2: GGACAGCAUAGCAAGUUAAAAUAAGGCUAGUCCGUUAUCAACUUGAAAAAGUGGCACCGAGUCGGUGCUUUUU	binds	–
9-20mm (mixed) DNA 1: AACGCAACGTCGTCAGCTGTCTGCACAGCAGAAATCTCTGCTCTGCGTATTTCTTGAGACGCTGGAGTACAAACGTCAGCTTGCT DNA 2: AGCAAGCTGACGTTTGTACTCCAGCGTCTCAAGAAATACGCAGAGCAGAGATTTCTGCTGTGCAGACAGCTGACGACGTTGCG RNA 1: GACGCAUAAAGAUGAGACGCGUUUUAGAGCUAUGCUGUUUUG RNA 2: GGACAGCAUAGCAAGUUAAAAUAAGGCUAGUCCGUUAUCAACUUGAAAAAGUGGCACCGAGUCGGUGCUUUUU	–	binding result (Cas9 (SpCas9) [3]): binds
17-20mm (mixed) DNA 1: AACGCAACGTCGTCAGCTGTCTGCACAGCAGAAATCTCTGCTCTGCCATAAAGATGAGACGCTGGAGTACAAACGTCAGCTTGCT DNA 2: AGCAAGCTGACGTTTGTACTCCAGCGTCTCATCTTTATGGCAGAGCAGAGATTTCTGCTGTGCAGACAGCTGACGACGTTGCG RNA 1: GACGCAUAAAGAUGAGACGCGUUUUAGAGCUAUGCUGUUUUG RNA 2: GGACAGCAUAGCAAGUUAAAAUAAGGCUAGUCCGUUAUCAACUUGAAAAAGUGGCACCGAGUCGGUGCUUUUU	binds	–
